According to article PMC12447488, “Targeting Both Monomer and Oligomer with Fibrinogen Efficiently Suppresses Amyloid Fibril Formation and Cell Toxicity of Amyloid β 1‑42” (ACS Chemical Neuroscience, 2025):

B1: human fibrinogen (complex)
chain 1: ADSGEGDFLAEGGGVRGPRVVERHQSACKDSDWPFCSDEDWNYKCPSGCRMKGLIDEVNQDFTNRINKLKNSLFEYQKNNKDSHSLTTNIMEILRGDFSSANNRDNTYNRVSEDLRSRIEVLKRKVIEKVQHIQLLQKNVRAQLVDMKRLEVDIDIKIRSCRGSCSRALAREVDLKDYEDQQKQLEQVIAKDLLPSRDRQHLPLIKMKPVPDLVPGNFKSQLQKVPPEWKALTDMPQMRMELERPGGNEITRGGSTSYGTGSETESPRNPSSAGSWNSGSSGPGSTGNRNPGSSGTGGTATWKPGSSGPGSTGSWNSGSSGTGSTGNQNPGSPRPGSTGTWNPGSSERGSAGHWTSESSVSGSTGQWHSESGSFRPDSPGSGNARPNNPDWGTFEEVSGNVSPGTRREYHTEKLVTSKGDKELRTGKEKVTSGSTTTTRRSCSKTVTKTVIGPDGHKEVTKEVVTSEDGSDCPEAMDLGTLSGIGTLDGFRHRHPDEAAFFDTASTGKTFPGFFSPMLGEFVSETESRGSESGIFTNTKESSSHHPGIAEFPSRGKSSSYSKQFTSSTSYNRGDSTFESKSYKMADEAGSEADHEGTHSTKRGHAKSRPV
chain 2: QGVNDNEEGFFSARGHRPLDKKREEAPSLRPAPPPISGGGYRARPAKAAATQKKVERKAPDAGGCLHADPDLGVLCPTGCQLQEALLQQERPIRNSVDELNNNVEAVSQTSSSSFQYMYLLKDLWQKRQKQVKDNENVVNEYSSELEKHQLYIDETVNSNIPTNLRVLRSILENLRSKIQKLESDVSAQMEYCRTPCTVSCNIPVVSGKECEEIIRKGGETSEMYLIQPDSSVKPYRVYCDMNTENGGWTVIQNRQDGSVDFGRKWDPYKQGFGNVATNTDGKNYCGLPGEYWLGNDKISQLTRMGPTELLIEMEDWKGDKVKAHYGGFTVQNEANKYQISVNKYRGTAGNALMDGASQLMGENRTMTIHNGMFFSTYDRDNDGWLTSDPRKQCSKEDGGGWWYNRCHAANPNGRYYWGGQYTWDMAKHGTDDGVVWMNWKGSWYSMRKMSMKIRPFFPQQ
chain 3: YVATRDNCCILDERFGSYCPTTCGIADFLSTYQTKVDKDLQSLEDILHQVENKTSEVKQLIKAIQLTYNPDESSKPNMIDAATLKSRKMLEEIMKYEASILTHDSSIRYLQEIYNSNNQKIVNLKEKVAQLEAQCQEPCKDTVQIHDITGKDCQDIANKGAKQSGLYFIKPLKANQQFLVYCEIDGSGNGWTVFQKRLDGSVDFKKNWIQYKEGFGHLSPTGTTEFWLGNEKIHLISTQSAIPYALRVELEDWNGRTSTADYAMFKVGPEADKYRLTYAYFAGGDAGDAFDGFDFGDDPSDKFFTSHNGMQFSTWDNDNDKFEGNCAEQDGSGWWMNKCHAGHLNGVYYQGGTYSKASTPNGYDNGIIWATWKTRWYSMKKTTMKIIPFNRLTIGEGQQHHLGGAKQAGDV
modifications: Natural plasma hexamer (AαBβγ)2, about 340 kDa, disulfide-linked and N-glycosylated, fibrinopeptides A and B retained. Aα is the 610-residue plasma form (the paper gives αC as 221-610); mature 1-610 =
B2: bovine fibrinogen (complex)
chain 1: EDGSDPPSGDFLTEGGGVRGPRLVERQQSACKETGWPFCSDEDWNTKCPSGCRMKGLIDEVDQDFTSRINKLRDSLFNYQKNSKDSNTLTKNIVELMRGDFAKANNNDNTFKQISEDLRSRIEILRRKVIEQVQRIKVLQKNVRDQLVDMKRLEVDIDIKIRSCKGSCSRALEHKVDLEDYKNQQKQLEQVIAINLLPSRDIQYLPLIKMSTITGPVPREFKSQLQEAPLEWKALLEMQQTKMVLETFGGDGHARGDSVSQGTGLAPGSPRKPGTSSIGNVNPGSYGPGSSGTWNPGRPEPGSAGTWNPGRPEPGSAGTWNPGRPEPGSAGTWNPGRPEPGSAGTWNPGRPEPGSAGTWNTGSSGSSSFRPDSSGHGNIRPSSPDWGTFREEGSVSSGTKQEFHTGKLVTTKGDKELLIDNEKVTSGHTTTTRRSCSKVITKTVTNADGRTETTKEVVKSEDGSDCGDADFDWHHTFPSRGNLDDFFHRDKDDFFTRSSHEFDGRTGLAPEFAALGESGSSSSKTSTHSKQFVSSSTTVNRGGSAIESKHFKMEDEAESLEDLGFKGAHGTQKGHTKARPARGIHTSPLGEPSLTP
chain 2: QFPTDYDEGQDDRPKVGLGARGHRPYDKKKEEAPSLRPVPPPISGGGYRARPATATVGQKKVERKPPDADGCLHADPDLGVLCPTGCKLQDTLVRQERPIRKSIEDLRNTVDSVSRTSSSTFQYITLLKNMWKGRQNQVQDNENVVNEYSSHLEKHQLYIDETVKNNIPTKLRVLRSILENLRSKIQKLESDVSTQMEYCRTPCTVTCNIPVVSGKECEKIIRNEGETSEMYLIQPEDSSKPYRVYCDMKTEKGGWTVIQNRQDGSVDFGRKWDPYKQGFGNIATNAEGKKYCGVPGEYWLGNDRISQLTNMGPTKLLIEMEDWKGDKVTALYEGFTVQNEANKYQLSVSKYKGTAGNALIEGASQLVGENRTMTIHNSMFFSTYDRDNDGWKTTDPRKQCSKEDGGGWWYNRCHAANPNGRYYWGGAYTWDMAKHGTDDGVVWMNWQGSWYSMKKMSMKIRPYFPEQ
chain 3: YVATRDNCCILDERFGSYCPTTCGIADFLNNYQTSVDKDLRTLEGILYQVENKTSEARELVKAIQISYNPDQPSKPNNIESATKNSKSMMEEIMKYETLISTHESTIRFLQEVYNSNSQKIVNLRDKVVQLEANCQEPCQDTVKIHDVTGRDCQDVANKGAKESGLYFIRPLKAKQFLVYCEIDGSGNGWTVFQKRLDGSLDFKKNWIQYKEGFGHLSPTGTGNTEFWLGNEKIHLISTQSSIPYVLRIQLEDWNGRTSTADYASFKVTGENDKYRLTYAYFIGGDAGDAFDGYDFGDDSSDKFFTSHNGMQFSTWDSDNDKYDGNCAEQVGIGWWMNKCHAGHLNGVYYQGGTYSKTSTPNGYDNGIIWATWKSRWYSMKKTTMKIIPLNRLAIGEGQQHQLGGAKQVGVEHHVEIEYD
notes: fibrinogen Aα chain, bovine; fibrinogen Bβ chain, bovine; fibrinogen γ chain, bovine; About 340 kDa, six polypeptide chains (two Aα, two Bβ, two γ); also called bFg; source: bought: Wako Pure Chemical Industries (from plasma), purified via size-exclusion chromatography (monomer fractions); copies: 2 + 2 + 2

Assays:
Conditions in all cases: both partners purified
Amyloid β 1-42 monomer [1] = target: T1, Amyloid β 1-42 monomer (UniProt P05067 672-713); experiment: far-Western, overlay or dot blot; Aβ42 20 μM incubated with bFg or hFg (0.03, 0.3, 3 μM) for 1 h at 37 °C in 50 mM phosphate/200 mM NaCl pH 7.4, then dotted; loss of the spot intensity of antibody 4G8 (monomer) or A11 (oligomer) taken as binding by steric hindrance; apparent Kd from fit or simulation with eq S6
T1 construct: printed molecular weight 4512 g/mol; numbers count on: the Aβ peptide; read out with antibody 4G8 in the dot blot; also called Aβ42; Aβ42 monomer; source: bought: Peptide Institute, Inc. (Japan), used without further purification

Amyloid β 1-42 oligomer [2] = target: T2, Amyloid β 1-42 oligomer (UniProt P05067 672-713); experiment: as above
T2 construct: numbers count on: the Aβ peptide; granular particles of 5.0 ± 0.9 nm height in AFM; read out with antibody A11 in the dot blot; also called Aβ42 oligomer; Aβ oligomers; source: formed from bought Aβ42 (Peptide Institute, Inc.) at 20 μM during 1 h at 37 °C in 50 mM phosphate/200 mM NaCl (pH 7.4); copies: 12

Amyloid β 1-42 monomer [3] = target: T1, Amyloid β 1-42 monomer; experiment: far-Western, overlay or dot blot + AUC; number of binding sites on bFg worked out from the concentrations of Aβ42 species (18 μM monomer, about 0.17 μM oligomer) and of bFg at which the interaction was seen
Amyloid β 1-42 oligomer [4] = target: T2, Amyloid β 1-42 oligomer; experiment: as above

Row | Binder | Kd (Amyloid β 1-42 monomer [1]) [nM] | Kd (Amyloid β 1-42 oligomer [2]) [nM] | stoichiometry N (Amyloid β 1-42 monomer [3]) | stoichiometry N (Amyloid β 1-42 oligomer [4])
1 | B1 | ≥ 100000 | 1400 ± 200 | – | –
2 | B2 | ~1000 | 200 ± 50 | ≤ 6 | ≥ 2
